Values joined by “and” are separate entries in the source; they are usually repeats but may differ in a detail not shown here. Equal entries are not always repeated.
B1: FITC-labelled human Ire1α luminal domain (aa 24-449) (domain or fragment)
chain: STVTLPETLLFVSTLDGSLHAVSKRTGSIKWTLKEDPVLQVPTHVEEPAFLPDPNDGSLYTLGSKNNEGLTKLPFTIPELVQASPCRSSDGILYMGKKQDIWYVIDLLTGEKQQTLSSAFADSLCPSTSLLYLGRTEYTITMYDTKTRELRWNATYFDYAASLPEDDVDYKMSHFVSNGDGLVVTVDSESGDVLWIQNYASPVVAFYVWQREGLRKVMHINVAVETLRYLTFMSGEVGRITKWKYPFPKETEAKSKLTPTLYVGKYSTSLYASPSMVHEGVAVVPRGSTLPLLEGPQTDGVTIGDKGECVITPSTDVKFDPGLKSKNKLNYLRNYWLLIGHHETPLSASTKMLERFPNNLPKHRENVIPADSEKKSFEEVINLVDQTSENAPTTVSRDVEEKPAHAPARPEAPVDSMLKDMATIIL
modifications: FITC label (site not stated)
B2: human Ire1α luminal domain (aa 24-449), wild type (domain or fragment)
chain: B1 chain

Assays:
MST = target: the molecule itself; experiment: MST
ΔEspP peptide = experiment: dynamic light scattering
SEC = target: the molecule itself; experiment: SEC

Row | Binder | Kd (MST) [nM] | binding result (ΔEspP peptide) | stoichiometry N (SEC)
1 | B1 | 500 |  | 
2 | B2 |  | binds | 2 and 4

Source: article doi:10.1101/2024.02.16.579620 (bioRxiv, 2024)
